Experimental data: the nanobody polyreactivity screen of Harvey et al. (2022)

test: yeast display, Sf9 membrane polyspecificity reagent, FACS + sequencing; frameworks hold sequencing errors
Outline: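 After 36–48 hours of galactose induction, yeast (Saccharomyces cerevisiae BJ5465) displaying a synthetic nanobody library were stained at 4 °C for 1 hour with 10% biotinylated, detergent-solubilized Sf9 membrane reagent. Streptavidin microbeads enriched the stained cells before FACS sorting into low and high (top ~1%) gates on anti-HA and streptavidin fluorescence. Each clone's polyreactivity label reflects its gate of origin.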

| Sequence | polyreactivity (PSR sort gate) |
| --- | --- |
| HVQLVESGGGLVQAGGSLRLSCAASGSIFDTYAMGWYRQAPGKERELVAAINFSDGDTYYADSVKGRFTSSRDNSKNTVYLQLNSLKPEDTAVYDCAAEVWDPPEYYDEYDYWGQGTQVTVSS | low polyreactivity |
| HVQLVESGGGLVQAGGSLRLSCAASGSIFIIYAMGWYRQAPGKERELVAAMDWSDGSTYYADSVKGRFTISRDNANNTVYLQMNSLKPEDTAVYYCNTQSRTLGWPLDYWGQGTQVTVSS | high polyreactivity |
| HVQLVESGGGLVQAGGSLRLSCAASGSIFVVYAMGWYRQAPGKERELVASIRTGGSTNYADSVKGRYTISRDNAKNTVYLQMNSLKPEDTAVYYCAAASWNSNRHYYVARYYYWGQGTQVTVSS | high polyreactivity |
| HVQLVESGGGLVQAGGSLRLSCAASGSIFVYNAMGWFRPAPGKERELVAGITFIGGSTYYADSVKGRFTISRDNAKNTVYLHMNSLKPVDNAVSYCATQEDWEDDWGQGTKVTVSS | low polyreactivity |
| HVQLVESGGGLVQAGGSLRLSCAASGSTVRRYAMGWYRQAPGKEREFVASITWRGGGTYYADSVKGRFTISRDNAKNTVYLQMNSLKPEETAVYYCASATQVRGHSLPYGYWGQGTQVTVSS | high polyreactivity |
| HVQLVESGGGLVQAGGSLRLSCAATGRIFWLYAMGWYRQAPGKERELVAAISSGGSTSYADSVKGRFTISRDNAKNTVYVQMNSLKPEDTAVYYCNATLLFPQLDGPESGEFDYWGQGTQRTVSS | low polyreactivity |
| HVQLVESGGGLVQAGGSLRLSCDASGRTFYRYVIGWYRQAPGKERELVAAISKSDGSSYYADSVKGRFTISRDNAKNTVYLQMNSLKPEDTAVYYCAAQYPTFYSPRPFNYWGQGTQVTVSS | high polyreactivity |
| HVQLVESGGGLVQAGGSLRLSCPASGRTFADNAMGWYRQAPGKERELVASISSGTSTNYADSVKGRFTISRDNAQNTVYVQMNSLKPEDTAVYYCNADGPIWYTAVLGVGRYYGWTDYWGQGTQVTVSS | low polyreactivity |
| HVQLVESGGGLVQAGGSLRVSCAASGRIFYYCARGWYGQAPGKEWELVAAITWSGGSTYYADSLMGRFTISRDNANNTVYVHKNSLKPEDPAVAYCTKSAAITGNGQMDYWGQCTQVTVSS | low polyreactivity |
| HVQLVESGGRLVQAGGSLRLSSAASGLNFYYYAIGWSRQAPGKERELVAAISRRGGSTYYADSVKGRFTISRDNAKNTVYLQMNSLKPEVTEVYYCAAKSGSFVHGGYQTPVYGSDYWGQGTQVTVSS | high polyreactivity |
| HVQLVESVGGLVQAGGSLRLRCAASGSIFYRNAMGWYRKAPGKERELVAAISSDGSTNYADSVKGRFTISRDNAKNSVYFQMNSLKPEDTAVYYCAAPWTQILDYWGQGTQVTVSS | low polyreactivity |
| HVQLVESVGGLVQAGGSLRLSCAASGRILGDNVMGWYRQAPGKERELVAAISSGSGSTYYADSVKGRFTISRDNAKNTVYLQMNSLKPEDTAVYYCAAGPYIYPRYDYWGQGTQVTVSS | low polyreactivity |
| HVQLVETGGGIVQAGGSLRLSCAASGFIFRYYARGWYRPSHGKETELVAAIDYSGGSTNYADSVKGRFTISRDYAKNTVSLQMNSLKPEDTAVYYCAAYLGWGYDYWGQGTQVTVSS | low polyreactivity |
| HVQRVESAGGLVQAGGSLRLSCADSGLIFRGNAMGWYRQAPGKVRELVATISYSGGSTYYADSVKGRFTISRENAKNTVYLQMNSLKPEDTAVYYCNRDPDPWGFQPDWYYGSYDYWGQGTQVTVSS | low polyreactivity |
| KVQHVESGGGLVQAGGSLRLSSAASGRISWSYAMGWYRQAPGKESELVAAITSGGTTNYAYSVKGRFTISRDNAKYTVYLQMNSLKPEDTAVYYCARDSYQLGLIRDPLEYDFWGKGTQVTVSS | low polyreactivity |
| KVQLVEKGGGLVQAGGSLRLSSAASGLNFTIYSMGWYRQEPGKERELVATISQGGGSTYADSVKGRFTISRDNAKNTVYLQMNSLKPEDTAVYYCNAKVVWYYLYDYWGQGTQVTVSS | low polyreactivity |
| KVQLVESCGGLVQAGGSLRLSCAASGFIISNYAMGWYRQAPGKERELVASISWGGGSTYYADSVKGSFTISRDNAKNTVYLQMNSLKPEDTAVYYCAAPSWDGIAYYGGYDYLGQGTQVTVSS | high polyreactivity |
